Data as given in publication PMC6739812 (Protein Science : A Publication of the Protein Society, 2019).

Target: the molecule itself
Experiment: SEC-MALS

B1: InvCΔ79 (Salmonella T3SS ATPase InvC lacking the first 79 residues, with C-terminal Strep-tag) (domain or fragment, Salmonella typhimurium, UniProt P0A1B9 80-431, looked up)
chain: GRALSAWVGYSVLGAVLDPTGKIVERFTPEVAPISEERVIDVAPPSYASRVGVREPLITGVRAIDGLLTCGVGQRMGIFASAGCGKTMLMHMLIEQTEADVFVIGLIGERGREVTEFVDMLRASHKKEKCVLVFATSDFPSVDRCNAAQLATTVAEYFRDQGKRVVLFIDSMTRYARALRDVALASGERPARRGYPASVFDNLPRLLERPGATSEGSITAFYTVLLESEEEADPMADEIRSILDGHLYLSRKLAGQGHYPAIDVLKSVSRVFGQVTTPTHAEQASAVRKLMTRLEELQLFIDLGEYRPGENIDNDRAMQMRDSLKAWLCQPVAQYSSFDDTLSGMNAFADQN
- stoichiometry N: 2
